Results as given in patent publication US20220073643A1 (NANJING GENSCRIPT BIOTECH, published 2022).

target: T1, human Claudin18.2 (human); assay: cell ELISA, Claudin18.2-expressing HEK293T cells
T1 construct: also called CLDN18.2
Outline: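 Claudin18.2-expressing HEK293T stable cells (1.5×10⁶ cells/ml in 5% skim milk/PBS blocking buffer) were incubated 1 h at room temperature in plates pre-blocked overnight at 4° C. EC₅₀ was derived by four-parameter curve fit.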

EC50 [nM]	Binder
0.875	292D9C7 (antibody, V domains shown, mouse hybridoma mAb) VH: QVQLKESGPGLVAPSQSLSITCTVSGFSLTDYGVSWIRQPPGKGLEWLGVIWGGGNAYYNSALKSRLSISKDNSKSQVFLKMNSLRTDDTAMYYCAKNGLLRYLDYWGQGSTLTVSS VL: DTVMTQSPSSLTVTAGEKVTMSCKSSQSLLNSGNQKNYLTWYQQKPGQPPKLLIYWASTRESGVPDRFTGSGSGRDFTLTISSVQVEDLAIYYCQNDYYYPLTFGAGTKVELK
~0.0831	286C7F11 (antibody, V domains shown, mouse hybridoma mAb) VH: QVQLKESGPGLVAPSQSLSITCTVSGFSLTDYGVSWIRQPPGKGLEWLGVIWNRGNTYYNSALKSRLSISKDNSKSQVFLRMNSLQTDDTAMYYCAKHDFLRFLDYWGQGTTLTVSS VL: DVVMTQSPSSLTVTAGEKVTMSCKSSQSLLNSGNQKNYLTWYQQKPGQPPKILIYWASTRESGVPDRFTGSGSGTDFSLTITSVQAEDLAVYYCLNDYYYPLTFGAGTKLELK
1.13	273F3D4 (antibody, V domains shown, mouse hybridoma mAb) VH: QVQLKESGPGLVAPSQSLSITCTVSGFALTTYGVSWVRQPPGKGLEWLGVIWGDGSTHYHSALISRLSIRKDNSKSQVFLKLNSLQTDDTATYYCAKPGRGNAMDYWGQGTSVTVSS VL: DIVMSQSPSSLTVTAGEKVTMSCKSSQSLLNSGNQKNYLTWYQQKPGQSPKLLIYWASTRESGVPDRFTGSGSGTDFTLTISSMQAEDLAVYYCQNDYIYPLTFGAGTMLELK
6.59	246B5F2 (IgM) (antibody, V domains shown, mouse hybridoma mAb, IgM) VH: EVMLVESGGGLMKPGGSLKLSCAASEFTFSNYAMSWVRQTPEKRLEWVATISSGRSSTYYPDSVKGRFTISRDNAKNTLYLQMSSLRSEDTAMYYCAGLGRGNAMEYWGQGTSVTVSS VL: DIVMTQSPSSLTVTAGEKVTLSCKSSQSLLNSGNQKNYLTWYQQKPGQPPKLLIYWASTRESGVPDRFTGSGSGTDFILTINSVQAEDLAVYYCQNAYSYPFTFGSGTKLEIK
~0.403	242F5H2 (antibody, V domains shown, mouse hybridoma mAb) VH: EVMLVESGGGLVKPGGSLKLSCAASGFTFSSYTVSWVRQTPEKRLEWVATSIVGSTYTYFPDSVKGRFTISRDFAKNTLFLQMSSLRSEDTAMYYCSRLGRGNAMDYWGQGTSVSVSS VL: DIVMTQSPSSLTVTAGEKVTLNCRSSQSLLNSGNQKNYLTWYQQKPGQPPKLLIYWASTRESGVPDRFTGSGSGTDFTLTISSVQADDLAVYYCQNGYSYPFTFGSGTKLEIK
~2.66	391F1G2 (antibody, V domains shown, mouse hybridoma mAb) VH: DVQLVESGGGLVQPGGSRKLSCAASGFTFSSFGMHWVRQAPEKGLEWVAYISSGSSPIYYADTVKGRFTISRDNPKNTLFLQMTSLRSEDTAMYFCARIYYGNSFAYWGQGTLVTVSA VL: DIVMTQSPSSLTVTAGEKVAMSCKSSQTLLNSGNQKNYLTWYQQKPGQPPKLLLYWASTRESGVPDRFTGSGSGTDFTLTISSVQAEDLAVYYCQNAYYYPLTFGSGTKLELK
1.83	406F11G8 (antibody, V domains shown, mouse hybridoma mAb) VH: DVQLVESGGGLVQPGGSRKLSCAASGFTFSSFGMHWVRQAPEKGLEWVAYISSGSSPIYYADTVKGRFTISRDNSKNTLFLQMTSLRSEDTAMYFCARIYYGNSFAYWGQGTLVTVSA VL: DIVMTQSPSSLTVTAGEKVAMSCKSSQTLLNSGNQKNYLTWYQQKPGQPPKLLIYWASTRESGVPDRFTGSGSGTDFTLTISSVQAEDLAVYYCQNAYYYPLTFGSGTKLELK
0.982	254A8D5 (antibody, V domains shown, mouse hybridoma mAb) VH: EVMLVESGGGLVKPGGSLKLSCAASGFTFSSYTVSWVRQTPEKRLEWVATSIVGSTYTYFPDSVKGRFTISRDFAKNTLFLQMSSLRSEDTAMYYCSRLGRGNAMDYWGQGTSVSVSS VL: DIVMTQSPSSLTVTAGEKVTLNCRSSQSLLNSGNQKNYLTWYQQKPGQPPKLLIYWASTRESGVPDRFTGSGSGTDFTLTISSVQADDLAVYYCQNGYSYPFTFGSGTKLEIK
1.21	392A11C8 (antibody, V domains shown, mouse hybridoma mAb) VH: DVQLVESGGGLVQPGGSRKLSCAASGFTFSGFGMHWIRQTPEKGLEWVAYISSGSRPIYYADTVKGRFTISRDNPKNTLFLQMTSLRSEDTAMYFCARFYYGNSFDHWGQGTLVTVSA VL: DIVMTQSPSFLTVTAGEKVTMSCRSSQSLLNSGNQKNYLTWYQQKPGQPPKLLIYWASTRESGVPDRFTGSGSGTDFTLTISSVQAEDLALYYCQNAYSFPLTFGAGTKLELK
2.97	391H11H3 (antibody, V domains shown, mouse hybridoma mAb) VH: DVQLVESGGGLVQPGGSRKLSCAASGFTFSGFGMHWIRQTPEKGLEWVAYISSGSRPIYYADTVQGRFTISRDNPKNTLFLQMTSLRSEDTAMYFCARFYYGNSFDHWGQGTLVTVSS VL: DIVMTQSPSFLTVTAGEKVTMSCKSSQSLLNSGNQKNYLTWYQQKPGQPPKLLIYWASTRESGVPDRFTGSGSGTDFTLTISSVQAEDLALYYCQNAYSFPLTFGAGTKLELK
3.58	395B3C11 (antibody, V domains shown, mouse hybridoma mAb) VH: DVQLVESGGGLVQPGGSRKLSCAASGFTFSGFGMHWIRQTPEKGLEWVAYISSGSRPIYYADTVQGRFTISRDNPKNTLFLQMTSLRSEDTAMYFCARFYYGNSFDHWGQGTLVTVSS VL: DIVMTQSPSFLTVTAGEKVTMSCKSSQSLLNSGNQKNYLTWYQQKPGQPPKLLIYWASTRESGVPDRFTGSGSGTDFTLTISSVQAEDLALYYCQNAYSFPLTFGAGTKLELK
4.33	406E1H7 (antibody, V domains shown, mouse hybridoma mAb) VH: DVQLVESGGGLVQPGGSRKLSCAASGFTFSGFGMHWIRQTPEKGLEWVAYISSGSRPIYYADTVQGRFTISRDNPKNTLFLQMTSLRSEDTAMYFCARFYYGNSFDHWGQGTLVTVSS VL: DIVMTQSPSFLTVTAGEKVTMSCKSSQSLLNSGNQKNYLTWYQQKPGQPPKLLIYWASTRESGVPDRFTGSGSGTDFTLTISSVQAEDLALYYCQNAYSFPLTFGAGTKLELK
2.81	394C2G5 (antibody, V domains shown, mouse hybridoma mAb) VH: DVQLVESGGGLVQPGGSRKLSCAASGFTFSGFGMHWIRQTPEKGLEWVAYVSSGSRPIYYADTVKGRFTISRDNPKNTLFLQMTSLRSEDTAMYFCARFYYGNSFDHWGQGTLVTVSA VL: DIVMTQSPSFLTVTAGEKVTMSCKSSQSLLNSGNQKNYLTWYQQKPGQPPKLLIYWASTRESGVPDRFTGSGSGTDFTLTINNVQAEDLALYYCQNAYSFPLTFGAGTKLELT
~0.37	252E7C9 (antibody, V domains shown, mouse hybridoma mAb) VH: QTYLQQSGAELVRSGASVKMSCRTSGYSFTSHNMHWVKQTPGQGLEWIGYIYPGNGGSYYNQKFKGKAILTADTSSSTAYMQISSLTSEDSAVYFCTRDYYGNSFVYWGQGTLVTVSA VL: DVVMTQSPSSLTEKTGEKVSMSCKSSQSLLNSGNQKNYLTWYQQKPGQPPKLLIYWASTRESGVPDRFTGSGSGTDFTLTISSLQTEDLAIYYCQNNFRYPFTFGAGTKLELK
~14	265E6G2 (antibody, V domains shown, mouse hybridoma mAb) VH: QAYLQQSGAELVRSGASVKMSCKASGYTFTSYNMHWVKQTPGQGLEWIGYIYPGNGGTNYNQKFKGKATLTADTSSSTAYMQISSLTSEDSAVYFCARDYYGNSFAYWGQGTLVTVSA VL: DLVMTQSPSSLTVTAGEKVTMSCKSSQSLLNSGNQKNYLTWYQQKPGQPPKLLIYWASTRESGVPDRFTGSGSGTDFTLTISNIQAEDLAVYYCQNDYSYPLPFGAGTKLELR
~9.62	279E8B8 (antibody, V domains shown, mouse hybridoma mAb) VH: QAYLQQSGAELVRSGASVKISCKASGYTFASHNMHWVKQTPGQGLEWIGYIYPGNGGTKYNQKFTGKATLSADTSSSTAYLQISSLTSEDSAVYFCARDYFGNSFVYWGQGTLVTVSA VL: DIVMTQSPSSLTEKAGEKVSMRCKSSQSLLNSGNQKNYLTWYQQKPGQPPKLLIYWASTRESGVPDRFTGSGSGTDFTLTISSVQADDLAVYYCQNDYMYPFTFGAGTKLELK
1.8	260F8A6 (antibody, V domains shown, mouse hybridoma mAb) VH: QAYLQQSGAELVRSGASVKMSCRASGYTFTSHNMHWVKQTPGQGLEWIGYIYPGNGNTYYNQKFKGKATLTADTSSNTAYMQINSLTSEDSAVYFCVRDYYGNSFVYWGQGTLVTVSA VL: DVVMTQSPSSLTEKTGEKVSMSCKSSQSLLNSGNQKNYLTWYQQKPGQPPKLLIYWASTRESGVPDRFIGSGSGTDFTLTISSLQTEDLAVYYCQNNYMYPFTFGAGTKLELK
~12.5	252C10F6 (antibody, V domains shown, mouse hybridoma mAb) VH: QVHLKQSGRGLVQPSQSLSITCTVSGFSLPNYGVHWVRQPPGKGLEWLGVIWSGGNTDYNTVFKARLSITKDNSKSQVFFKMNSLQADDTAIYYCARNLYGNYDYAMDYWGQGTSVTVSS VL: DIVMTQSPATLSVTPGDRVSLSCRASQSISDYLHWYQQKSHESPRLLIKYASQSISGIPSRFSGSGSGSEFTLSINSVEPEDVGVYYCQNGHSFPFTFGSGTKLEIK
1.08	263E9F3 (antibody, V domains shown, mouse hybridoma mAb) VH: EIQVQQSGPELMKPGASVKISCRSSGYSFTSYYIHWVKQSRGKSLEWIGYIDPFSGGTRYNQKFEGKATLTVDKSSTTAYMHLSSLTSEDSAVYYCASLRFFAYWGQGTLVTVSA VL: DIVMTQSPSSLTVTAGEKVTMTCKSSQSLLNSGNQENYLTWYQQKPGQPPELLISRASTRQSGVPDRFTGSGSGTDFTLTISSVQTEDLAVYYCQNDYSYPLTFGAGTKLELK
~2.06	275B2G2 (antibody, V domains shown, mouse hybridoma mAb) VH: EVMLVESGGGLVKPGGSLKLSCAASGFTFRDYTMSWVRQTPEKRLEWVATSIIGGTYTYYPDSVKGRFTISRDNVKNTLYLQMSSLRSEDTAMYYCSRLGRGNAMDYWGQGTSVTVSS VL: DIVMTQSPSSLTVTAGEKVTMSCKSSQSLLNSGNQKNYLTWYQQKPGQPPKLLIYWASTRESGVPDRFTGSGSGTDFTLTISSVQAEDLAVYYCQNDYSYPFTFGSGTKLEIK
~0.429	271B1B6 (antibody, V domains shown, mouse hybridoma mAb) VH: QAYLQQSGAELVRSGASVKMSCKASGYTFTNYNIHWVKQTPGQGLEWIGYIYPGNGGNYYNQKFKGKATLTADTSSITAYMQISSLTSEDSAVYFCARDYYGNSFAYWGQGTLVTVSA VL: DIVMTQSPSSLTVTAGEKVTMNCKSSQSLLNSGNQKNYLTWYQQKPGQPPKLLIYWASTRESGVPDRFTGSGSGTDFTLTISSVQAEDLAIYYCQNDYYYPLTFGAGTKLELK
~0.378	259B4D4 (antibody, V domains shown, mouse hybridoma mAb) VH: EIQLQQSGPELMKPGASVRISCKASGYSFTSYYMHWMKQSHVKSLEWIGYIDPFNGNTRYNQKFKDKATLTVDKSSTTAYMHLSSLTSEDSAVYFCASLRFFAYWGQGTLVTVSA VL: DIVMTQSPSSLTVTAGEKVTMSCNSSQSLLNSGNQKNYLTWYQQKPGQPPKLLIYWASSRESGVPDRFTGSGSGTDFTLTISTVQAEDLAVYYCQNDYSFPLTFGAGTRLELK
